Substrate: C[C@@H]1O[C@@H](Oc2ccc([N+](=O)[O-])cc2)[C@H](O)[C@H](O)[C@H]1O
Assay: purified protein
Settings: pH 5.0, 37 °C (b12; Experimental b31 prints Tris 200 mM, pH 6.0)

B1: DtRha (Dictyoglomus thermophilum H-6-12) (protein)
chain: MKSSNIYSPFDLKCEFTTNPLGVDKKNPIFSWKLRHLEKNEKQTAYQVIVSSSLETINDNIGDVWDTGKVLSSEQVIKYEGKELEPCKVYFWKVRWWDSKDQESPFSVVNTFETGLMNEENWKAKWITKKEHKYEVYSPDGAPFGLNYTIAYAPMFRKSFSISKKIKRARVYIAGLGLYELYINGERIGDRVLDPGQTDYKKRVLYTVYDVSKNIRDGKNAIGVILGNGRYVKEYGYDFPKLIIQVLVEYEDDSIEWIVSDESWKTTYGPITLNSLYHGEIYDGRKEIKGWNLPDFDDSTWENAILAEPPGGKLYSEIYPPIRITKTIKPIKMWSPEPGTYVYDFGQNYTGWIKIKVRTNESGKEIRIRHAELTYEDGTLNYSTNRTALATDVYITKGEGYEEYEPRFTYHGFRYVEILGYPGVPTLEDIEGKVVHTAVESNGEFICSNELINKIHHNIIWGQLSNLMSIPTDCPQRDERMGWMGDAQLSAEEAIFNFDMIGFYRKYLNDIRDAQKENGSLSDVIPPYWSIYPGDPAWSTAYITIAWYLYQYYGDKYVLEEHYEGFKKYVEFLKKLAPDYIVSFYKYGDWCQPGTVRPKDNSGELTSTFYFYHDVITLSKIAKLLGKEADYKYYSELADKIKSAFNKKFLKEKAYASIPTELSEENVKALLEKYPEDIKDFLRQQFTILSSLGMFTSQTLNTLPLYLNLVPEDKVQDVLKTLLEDIIIRHDYHLDTGIVATRYIFDVLTSYGYDEVAYKIVNQKTYPSFGYMIEEGATTLWERWEKLTSTGMNSHNHIMFGSVDAWFYRVIAGVRVGEPGWNKIIFEPHPVGDLKYAKARLNTIKGEVEINWQKTENIFSMRISVPVNSEGEVHVPKLFERFVVKEGDNIIYEKKGDLEENEKYIVIRVGSGSYNFYMEKI
For B1, the Km was 54.00 ± 0.03 µM and the kcat was 0.17 ± 0.01 s⁻¹.
